# Data taken from the nanobody polyreactivity screen of Harvey et al. (2022).
# Assay: yeast display, Sf9 membrane polyspecificity reagent, FACS + sequencing; frameworks hold sequencing errors
# In short: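 Genes from sorted yeast were amplified by colony PCR, read by MiSeq 2 × 250 sequencing and filtered on CDR length. These cells carried a synthetic nanobody library in Saccharomyces cerevisiae BJ5465 and were sorted by FACS into low and high (top ~1%) gates on anti-HA and streptavidin fluorescence. Polyreactivity is labelled according to the gate of origin.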
row,Sequence,polyreactivity (PSR sort gate)
1,QVQLVESGGGLVQAGGSLRLSCAASGRTFFWNAMGWYRQAPGKERELVAAITWSGGSTYYADSVKGRFTISRDNAKTTVYLQMNSLKPEDTAVYYCAAVVSDYVWRYEYWGQGTQVTVSS,low polyreactivity
2,QVQLVESGGGLVQAGGSLRLSCAASGSTFPGNALGSYRQAPGKERELVAAIRDRGTSTYYADSVKGRFTISRDNAKNTFYLQMNSLKPEDTAVYYCAASSSNKEYDYWGQGTQVTVSS,high polyreactivity
3,QVQLVESGGGLVQAGGSLRLSCAASGYTFFRYAMGWYRQAPGKERELVAAISGGGGSTYYADSVKGRFTISRDYAKNTVYLQMNSLKPEDTAVYYCAAESQAYSLYWGQGTQVTVSS,high polyreactivity
4,QVQLVESGGGLVQAGGSLRLSCAASGITFYGNAMGWYRQAPGNERELVAAITFSGGITYYADSVKGRFTISRDNAKNTVYLQMNSLKPEDTAVYDCATDPIGGWTRPQRYGDDYWGQGTQVTVSS,low polyreactivity
5,QVQLVDSGGGLVQAGGSLRLSCAASGRNFSPYTMGWYRQAPGKVREMVAAIRSGDGRTYYADSVKGRFTISRDNAKNTVYLQMNSLKQEDTAVYYCAARRGKVYVSGNGYWGQGTQVTVSS,high polyreactivity
6,QVQLVESGGGLVQAGGSLRLSCAASGRIFASKAMGWYRQAPGKERELVAAITTTGGSTYYADSVKGRFTISRDNAKNTVYLQMNSLKPEDTAVYYCASRAIPRVRRYGSMNYWGQGTQVTVSS,high polyreactivity
7,QVQLVESGGGLVQAGGSLRLSCAASGLILSDYAMGWYRQAPGKERELVATITSVGTTKYADSVKGRVTISRDNAKKTVYVQLHSLKPEDTAVYYCAAEFIRGYGESYDYWGQGTQVTVSS,low polyreactivity
8,QVQLVESRGGLVQAGRSLRLSCAASGRTFHRNTLGRYRQAPGKERELVAAITGDGRTNYADSVKGRFTISRDNAKNTVYLLMNSLKPEDTAGYYCAAQYYYSEAGRDYWGQGTQVTVSS,low polyreactivity
9,QVQLVESGGGLVQAGGSLRLSCAASGFIFGGNAMGWYRPAPGKERELVAAISRRGGNTYYADSVKGRFTISRDNAKITVYLQMNSLKPEDTAVYYCATGTSYWYLWAYDYWGQGTQVTVSS,high polyreactivity
10,QVQLVESGGGLVQAGGSLRLSCAASGSTFWIYAMGWYRQAPGKERELVAAISWSTGRTYYADSVKGRFTISRDNAKNTVYLQMNSLKPEDTAVYYCNAGPQHNTLKLFYYWGQGTQVTVSS,low polyreactivity
11,QVQLVDSGGGLVQAGGSLPLICADAGSTFNSYAMGRYRQAPGKKRELVAAIRWIGDSTYADSVKGRFTISRDNATNTVYLQMNSLKPVDTAVYYCAATDVSWGVDYWGQCTQVTVSS,low polyreactivity
12,QVQLVESGGGLVHPGGSLRLSCAASGIIFGRYTMGWYRQAPGKERELVAAITSSGITYYADSVKGRFTISRDNAKNTVYLQMNSLKPEDTAVYYCNADYSIPGYYWPYDYWGQGTQVTVSS,low polyreactivity
13,QVQLVESGGGLVQAGGSLRISCAASGRTFRYYGMGWYRQPPAKERVVAAITWSGDTTYYADSVKGRFTISRDNAKNTVYLQMNSLKPEDTAVYYFAAQSWHRYYYWGQGTQVTVSS,high polyreactivity
14,QVQLVESGGGLVQAGGSLRLSCAASGSTFHRYAMGWSRQAPGKERELVAAISLSGGRTYYADSVKGRFTISRDNAKNTVYLQMNSLKPEDSAVYYCNALVPSGNGDHDYWGQGTQVTVSS,high polyreactivity
15,QVQLVESGGGLVQAGGSLRLSCAASGRIFKYYAMGWYRQAPGKERELVAAITRNGGITYYADSVKGRFTISRDNAKNTVYLQMNSLKPEDTAVYYCAAGQRGRYSISSDEYNYWGQGTQVTVSS,high polyreactivity
16,QVKLVESGGGLVQAGGSLSLSCDASGFISVQNALGCYRQAPGKERELVASITSDGSTYYADSVKGRFTISRDNAKNTVYLQMTSLKPEDTAVYDCAKVNNSYSGFTTTLEYWGQGTQVTVSS,low polyreactivity
17,QVQLVESGGVLLQAGGSLRLSCAASGTIQYIKTMGWYRQAPGKERELVAAITYSGGSTYYADSVKGRFTISRDNAKNTVYLQRNSLKPVVTAVYYCAGDGYYGGYNYWGQGTQVTVSS,low polyreactivity
